Laboratory results reported in publication PMC5344674.

Legend:
[1] = target: Orsay virus full-length δ protein (Orsay virus); experiment: AUC; sedimentation velocity, 27.6 μM δ, 20°C, 30,000 rpm, 50 mM TRIS pH 7.5, 250 mM NaCl; PCSA-DS molar mass transformation
[2] = target: Orsay virus full-length δ protein (Orsay virus); experiment: native MS; direct infusion by nano-spray, 10ug/mL protein complex in 5% ACN, 0.1% FA, Orbitrap Fusion Lumos; non-denaturing conditions; intact pentamer
[3] = target: Orsay virus mini-fusion protein CP-δ(215–485) (Orsay virus); experiment: SEC; Superdex 200 gel filtration; elution buffer 50 mM Tris-HCl pH 7.5, 250 mM NaCl, 2-ME, 1 mM NaN3
[4] = target: Orsay virus δ(1–66) (Orsay virus); experiment: crystal structure; hanging-drop vapor diffusion at 20°C; SAD with SeMet crystals, refined against native data at 2.22 Å

What does the source list for “Orsay virus full-length δ protein (natural protein)”?
stoichiometry N [1]: 5; stoichiometry N [2]: 5

“Orsay virus mini-fusion protein CP-δ(215–485) (domain or fragment)” was tested. Which stoichiometry N [3] did it give?
Its stoichiometry N is 5.

With “Orsay virus δ(1–66) (domain or fragment)” as the substance, how does the stoichiometry N [4] read?
Its stoichiometry N is 5.
